From publication PMC5120336, “The N-terminal loop of IRAK-4 death domain regulates ordered assembly of the Myddosome signalling scaffold” (Scientific Reports, 2016)

B1: MyD88 containing the death domain and intermediate domain (aa 1 to 158) (domain or fragment, human, UniProt Q99836 1-158, looked up)
chain: MAAGGPGAGSAAPVSSTSSLPLAALNMRVRRRLSLFLNVRTQVAADWTALAEEMDFEYLEIRQLETQADPTGRLLDAWQGRPGASVGRLLELLTKLGRDDVLLELGPSIEEDCQKYILKQQQEEAEKPLQVAAVDSSVPRTAELAGITTLDDPLGHMP
notes: MyD88, human, death domain and intermediate domain, aa 1 to 158; Alone it elutes as a dimer (35 kDa) on size exclusion; also called MyD88 DD; MyD88 death domain; source: E. coli BL21 Star (DE3), purified (GSTrap with on-column Tev cleavage, HisTrap, Superdex 75); not shown: 6xHis-GST, N-terminal, cleaved
B2: IRAK-4 kinase dead mutant (KK213AA) (LUMIER construct) (natural protein, human, UniProt Q9NWZ3 1-460, looked up)
chain: MNKPITPSTYVRCLNVGLIRKLSDFIDPQEGWKKLAVAIKKPSGDDRYNQFHIRRFEALLQTGKSPTSELLFDWGTTNCTVGDLVDLLIQNEFFAPASLLLPDAVPKTANTLPSKEAITVQQKQMPFCDKDRTLMTPVQNLEQSYMPPDSSSPENKSLEVSDTRFHSFSFYELKNVTNNFDERPISVGGNKMGEGGFGVVYKGYVNNTTVAVAALAAMVDITTEELKQQFDQEIKVMAKCQHENLVELLGFSSDGDDLCLVYVYMPNGSLLDRLSCLDGTPPLSWHMRCKIAQGAANGINFLHENHHIHRDIKSANILLDEAFTAKISDFGLARASEKFAQTVMTSRIVGTTAYMAPEALRGEITPKSDIYSFGVVLLEIITGLPAVDEHREPQLLLDIKEEIEDEEKTIEDYIDKKMNDADSTSVEAMYSVASQCLHEKKNKRPDIKKVQQLLQEMTAS
notes: IRAK-4, human; also called kinase dead IRAK-4; KD

Experiments:
[1] = target: the molecule itself; experiment: SEC; Myddosome assembly assay: death domains alone or mixed 1:1, concentrated to 0.5 mg.ml^-1, calibrated TSKgel SuperSW3000 analytical size exclusion column, 0.3 ml.min^-1, peaks analysed by reducing SDS-PAGE
[2] = target: T1, MyD88 (LUMIER construct) (human, UniProt Q99836 1-296); experiment: LUMIER; affinity purification of Protein A tagged proteins on magnetic IgG beads (Dynabeads M-280, sheep anti-rabbit IgG); co-purified protein detected by Renilla luciferase activity; settings: partners not purified
T1 construct: MyD88, human

Binder	stoichiometry N [1]	fold binding against wild-type IRAK-4 [2] [fold]
B1	2	–
B2	–	~5
